# Data taken from patent publication US20200085917A1.
# Assays:
# Experiment in all cases: GST pull-down, LC-MS/MS
# [1] = target: T1, Atp5f1_IPI:IPI00341282.2 (mouse) (UniProt Q9CQQ7)
# T1 sequence (looked up): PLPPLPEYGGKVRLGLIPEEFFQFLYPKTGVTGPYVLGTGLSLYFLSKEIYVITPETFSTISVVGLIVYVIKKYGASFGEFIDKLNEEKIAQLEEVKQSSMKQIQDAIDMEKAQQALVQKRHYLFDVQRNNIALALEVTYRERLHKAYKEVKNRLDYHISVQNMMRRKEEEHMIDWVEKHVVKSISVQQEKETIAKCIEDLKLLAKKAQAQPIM
# [2] = target: T2, Ccdc127_IPI:IPI00131843.3 (mouse) (UniProt Q3TC33)
# T2 sequence (looked up): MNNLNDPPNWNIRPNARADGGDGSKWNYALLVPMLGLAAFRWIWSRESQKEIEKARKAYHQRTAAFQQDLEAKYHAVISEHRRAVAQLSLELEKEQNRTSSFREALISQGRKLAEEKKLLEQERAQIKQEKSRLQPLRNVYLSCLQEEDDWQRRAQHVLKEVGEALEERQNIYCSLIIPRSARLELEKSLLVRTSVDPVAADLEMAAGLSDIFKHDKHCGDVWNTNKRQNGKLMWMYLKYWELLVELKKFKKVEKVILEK
# [3] = target: T3, Cplx2_IPI:IPI00111501.1 (mouse) (UniProt P84086)
# T3 sequence (looked up): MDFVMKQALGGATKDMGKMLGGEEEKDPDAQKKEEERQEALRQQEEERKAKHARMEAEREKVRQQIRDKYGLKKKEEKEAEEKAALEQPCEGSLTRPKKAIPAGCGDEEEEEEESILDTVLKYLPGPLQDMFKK
# [4] = target: T4, Gbas_IPI:IPI00115827.1 (mouse) (UniProt O55126)
# T4 sequence (looked up): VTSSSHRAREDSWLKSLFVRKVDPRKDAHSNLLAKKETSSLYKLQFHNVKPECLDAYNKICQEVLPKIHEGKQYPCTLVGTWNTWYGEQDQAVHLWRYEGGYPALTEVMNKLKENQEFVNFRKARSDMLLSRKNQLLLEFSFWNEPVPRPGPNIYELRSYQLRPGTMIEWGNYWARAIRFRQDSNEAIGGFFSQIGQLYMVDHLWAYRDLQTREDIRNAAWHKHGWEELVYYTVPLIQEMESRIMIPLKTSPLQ
# [5] = target: T5, Hmgcl_IPI:IPI00127625.1 (mouse) (UniProt P38060)
# T5 sequence (looked up): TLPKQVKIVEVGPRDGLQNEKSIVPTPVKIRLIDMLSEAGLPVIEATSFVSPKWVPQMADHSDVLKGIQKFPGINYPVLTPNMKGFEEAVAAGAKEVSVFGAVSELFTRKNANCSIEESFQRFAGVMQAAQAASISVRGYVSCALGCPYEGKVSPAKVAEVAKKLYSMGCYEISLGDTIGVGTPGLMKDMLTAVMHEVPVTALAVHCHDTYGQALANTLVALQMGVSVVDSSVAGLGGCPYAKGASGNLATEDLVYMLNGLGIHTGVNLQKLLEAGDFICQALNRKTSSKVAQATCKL
# [6] = target: Hspa9_IPI:IPI00880839.1 (mouse) (UniProt P38647)
# [7] = target: IPI:IPI00123176.1_IPI:IPI00123176.1 (mouse)
# [8] = target: Loh12cr1_IPI:IPI00457620.2 (mouse)
# [9] = target: Ndufb5_IPI:IPI00132531.1 (mouse) (UniProt Q9CQH3)
# [10] = target: T6, Nipsnap1_IPI:IPI00115824.1 (mouse) (UniProt O55125)
# T6 sequence (looked up): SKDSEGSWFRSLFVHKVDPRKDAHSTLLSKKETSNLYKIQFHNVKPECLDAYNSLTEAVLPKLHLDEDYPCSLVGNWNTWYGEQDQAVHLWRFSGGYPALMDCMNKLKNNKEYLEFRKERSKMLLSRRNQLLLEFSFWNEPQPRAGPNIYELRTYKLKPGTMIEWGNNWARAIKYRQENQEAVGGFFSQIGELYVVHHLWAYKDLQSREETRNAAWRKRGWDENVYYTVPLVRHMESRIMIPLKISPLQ
# [11] = target: T7, Pfn2_IPI:IPI00227805.6 (mouse) (UniProt Q9JJV2)
# T7 sequence (looked up): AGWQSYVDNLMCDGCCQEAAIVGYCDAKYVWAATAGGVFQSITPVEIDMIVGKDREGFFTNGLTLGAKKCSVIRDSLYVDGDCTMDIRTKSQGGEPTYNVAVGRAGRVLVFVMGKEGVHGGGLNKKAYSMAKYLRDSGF
# [12] = target: Slc1a2_IPI:IPI00230289.1 (mouse) (UniProt P43006)
# [13] = target: Slc25a1_IPI:IPI00276926.3 (mouse) (UniProt Q8JZU2)
# [14] = target: Tomm20_IPI:IPI00120715.1 (mouse) (UniProt Q9DCC8)
# [15] = target: Tuba4a_IPI:IPI00117350.1 (mouse) (UniProt P68368)
# [16] = target: Vsnl1_IPI:IPI00230418.5 (mouse) (UniProt P62761)
# [17] = target: mt-Co2_IPI:IPI00131176.1 (mouse) (UniProt P00405)
# Chain of mt-Co2_IPI:IPI00131176.1 (mouse) (P00405 whole entry): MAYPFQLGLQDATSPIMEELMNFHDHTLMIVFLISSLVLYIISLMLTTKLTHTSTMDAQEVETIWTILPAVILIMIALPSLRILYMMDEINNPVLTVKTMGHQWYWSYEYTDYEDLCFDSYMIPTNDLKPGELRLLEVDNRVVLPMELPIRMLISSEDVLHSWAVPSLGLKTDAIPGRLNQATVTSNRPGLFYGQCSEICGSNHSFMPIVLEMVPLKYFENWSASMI
# Chain of Tomm20_IPI:IPI00120715.1 (mouse) (Q9DCC8 whole entry): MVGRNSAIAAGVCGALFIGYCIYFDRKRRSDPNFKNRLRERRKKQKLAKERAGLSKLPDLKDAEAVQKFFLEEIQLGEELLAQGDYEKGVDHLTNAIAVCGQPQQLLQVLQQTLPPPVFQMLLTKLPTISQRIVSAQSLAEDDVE
# Chain of Tuba4a_IPI:IPI00117350.1 (mouse) (P68368 whole entry): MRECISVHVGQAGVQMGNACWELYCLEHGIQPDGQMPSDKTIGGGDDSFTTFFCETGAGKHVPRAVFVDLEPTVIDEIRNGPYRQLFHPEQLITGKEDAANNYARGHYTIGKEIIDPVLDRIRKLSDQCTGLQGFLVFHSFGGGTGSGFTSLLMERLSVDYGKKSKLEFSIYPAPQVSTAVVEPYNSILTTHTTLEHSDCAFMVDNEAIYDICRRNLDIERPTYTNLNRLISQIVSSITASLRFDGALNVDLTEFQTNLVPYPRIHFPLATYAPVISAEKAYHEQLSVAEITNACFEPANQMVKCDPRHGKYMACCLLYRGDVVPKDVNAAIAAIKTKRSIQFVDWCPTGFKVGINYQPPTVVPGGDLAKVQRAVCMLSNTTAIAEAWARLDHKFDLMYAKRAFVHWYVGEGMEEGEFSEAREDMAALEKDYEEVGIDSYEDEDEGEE
# Chain of GST-Httex1-23Q (P08515 1-218, tags or fused parts left off): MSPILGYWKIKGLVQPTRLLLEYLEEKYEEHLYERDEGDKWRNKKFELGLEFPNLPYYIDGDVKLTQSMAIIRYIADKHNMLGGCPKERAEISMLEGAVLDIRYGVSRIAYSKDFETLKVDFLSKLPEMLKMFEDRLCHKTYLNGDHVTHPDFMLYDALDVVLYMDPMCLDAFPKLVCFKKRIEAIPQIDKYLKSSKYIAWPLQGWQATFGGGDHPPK
# Chain of Slc1a2_IPI:IPI00230289.1 (mouse) (P43006 whole entry): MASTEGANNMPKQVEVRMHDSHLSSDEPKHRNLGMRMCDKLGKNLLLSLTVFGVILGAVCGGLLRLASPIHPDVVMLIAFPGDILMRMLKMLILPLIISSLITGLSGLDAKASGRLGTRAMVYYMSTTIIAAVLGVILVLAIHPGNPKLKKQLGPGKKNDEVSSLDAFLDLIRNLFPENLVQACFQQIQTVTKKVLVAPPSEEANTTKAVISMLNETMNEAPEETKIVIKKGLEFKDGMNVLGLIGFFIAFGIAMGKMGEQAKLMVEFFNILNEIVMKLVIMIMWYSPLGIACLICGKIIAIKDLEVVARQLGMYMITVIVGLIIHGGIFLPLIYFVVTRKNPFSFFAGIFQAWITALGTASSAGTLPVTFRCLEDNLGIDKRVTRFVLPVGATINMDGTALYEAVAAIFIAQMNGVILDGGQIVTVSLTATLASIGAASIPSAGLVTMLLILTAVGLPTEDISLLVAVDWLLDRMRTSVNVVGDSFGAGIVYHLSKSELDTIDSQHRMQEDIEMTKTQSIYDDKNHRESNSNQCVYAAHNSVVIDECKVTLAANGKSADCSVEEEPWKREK
# Chain of Hspa9_IPI:IPI00880839.1 (mouse) (P38647 47-679 limits assumed): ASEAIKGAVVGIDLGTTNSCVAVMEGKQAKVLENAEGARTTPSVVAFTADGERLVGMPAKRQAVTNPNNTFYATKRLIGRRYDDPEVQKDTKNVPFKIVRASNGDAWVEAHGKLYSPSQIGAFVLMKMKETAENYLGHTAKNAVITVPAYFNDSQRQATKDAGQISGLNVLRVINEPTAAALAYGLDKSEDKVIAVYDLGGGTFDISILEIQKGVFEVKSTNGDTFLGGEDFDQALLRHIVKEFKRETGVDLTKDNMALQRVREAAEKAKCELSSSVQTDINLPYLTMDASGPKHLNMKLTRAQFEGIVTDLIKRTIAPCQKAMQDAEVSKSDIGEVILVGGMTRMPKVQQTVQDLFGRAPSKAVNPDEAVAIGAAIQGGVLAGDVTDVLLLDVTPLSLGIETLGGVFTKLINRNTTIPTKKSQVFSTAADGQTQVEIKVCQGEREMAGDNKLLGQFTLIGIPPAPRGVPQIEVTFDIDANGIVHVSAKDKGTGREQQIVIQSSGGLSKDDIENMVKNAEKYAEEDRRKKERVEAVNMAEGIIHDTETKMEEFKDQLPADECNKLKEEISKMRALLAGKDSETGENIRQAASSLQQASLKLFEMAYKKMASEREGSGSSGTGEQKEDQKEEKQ
# Chain of Slc25a1_IPI:IPI00276926.3 (mouse) (Q8JZU2 14-311 limits assumed): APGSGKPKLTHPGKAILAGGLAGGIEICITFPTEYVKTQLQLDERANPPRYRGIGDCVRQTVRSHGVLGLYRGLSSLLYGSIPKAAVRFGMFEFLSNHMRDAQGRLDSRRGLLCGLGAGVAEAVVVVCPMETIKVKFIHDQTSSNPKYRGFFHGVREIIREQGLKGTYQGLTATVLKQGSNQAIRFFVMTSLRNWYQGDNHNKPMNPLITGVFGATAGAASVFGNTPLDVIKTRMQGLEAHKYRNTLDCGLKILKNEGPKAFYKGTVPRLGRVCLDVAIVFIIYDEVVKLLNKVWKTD
# Chain of Vsnl1_IPI:IPI00230418.5 (mouse) (P62761 2-191 limits assumed): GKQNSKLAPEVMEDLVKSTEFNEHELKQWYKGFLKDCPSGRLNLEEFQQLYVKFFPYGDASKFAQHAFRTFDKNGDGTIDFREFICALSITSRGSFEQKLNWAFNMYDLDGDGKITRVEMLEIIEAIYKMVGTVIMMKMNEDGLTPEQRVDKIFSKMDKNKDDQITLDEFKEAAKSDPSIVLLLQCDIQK
# Chain of Ndufb5_IPI:IPI00132531.1 (mouse) (Q9CQH3 47-189 limits assumed): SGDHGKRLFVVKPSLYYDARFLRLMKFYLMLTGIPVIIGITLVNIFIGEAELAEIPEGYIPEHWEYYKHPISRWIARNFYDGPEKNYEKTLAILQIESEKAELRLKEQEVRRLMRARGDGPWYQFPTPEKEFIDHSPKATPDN
Substance,No. of total peptides [1] [peptides],No. of unique peptides [1] [peptides],No. of total peptides [2] [peptides],No. of unique peptides [2] [peptides],No. of total peptides [3] [peptides],No. of unique peptides [3] [peptides],No. of total peptides [4] [peptides],No. of unique peptides [4] [peptides],No. of total peptides [5] [peptides],No. of unique peptides [5] [peptides],No. of total peptides [6] [peptides],No. of unique peptides [6] [peptides],No. of total peptides [7] [peptides],No. of unique peptides [7] [peptides],No. of total peptides [8] [peptides],No. of unique peptides [8] [peptides],No. of total peptides [9] [peptides],No. of unique peptides [9] [peptides],No. of total peptides [10] [peptides],No. of unique peptides [10] [peptides],other results
GST-Httex1-97Q (from UniProt P08515 1-218; P42858 1-88),4,4,5,5,6,5,5,3,1,1,1,1,2,2,1,1,1,1,1,1,No. of total peptides [11]: 2 peptides; No. of unique peptides [11]: 2 peptides; No. of total peptides [12]: 1 peptides; No. of unique peptides [12]: 1 peptides; No. of total peptides [13]: 2 peptides; No. of unique peptides [13]: 2 peptides; No. of total peptides [14]: 1 peptides; No. of unique peptides [14]: 1 peptides; No. of total peptides [15]: 2 peptides; No. of unique peptides [15]: 2 peptides; No. of total peptides [16]: 2 peptides; No. of unique peptides [16]: 2 peptides; No. of total peptides [17]: 4 peptides; No. of unique peptides [17]: 3 peptides
GST-Httex1-23Q (from UniProt P08515 1-218; P42858 1-88),3,3,2,2,1,1,2,2,1,1,1,1,1,1,1,1,1,1,1,1,No. of total peptides [11]: 1 peptides; No. of unique peptides [11]: 1 peptides; No. of total peptides [12]: 1 peptides; No. of unique peptides [12]: 1 peptides; No. of total peptides [13]: 1 peptides; No. of unique peptides [13]: 1 peptides; No. of total peptides [14]: 1 peptides; No. of unique peptides [14]: 1 peptides; No. of total peptides [15]: 3 peptides; No. of unique peptides [15]: 3 peptides; No. of total peptides [16]: 1 peptides; No. of unique peptides [16]: 1 peptides; No. of total peptides [17]: 1 peptides; No. of unique peptides [17]: 1 peptides
